Values belong to the molecule of their own block, whether it stands above or below them.
Tests used:
[1] = target: recombinant p16^INK4A (wild type) (Homo sapiens) (UniProt P42771); assay: non-reducing SDS-PAGE
co-IP = target: the molecule itself; assay: co-IP
[2] = target: T1, endogenous p16^INK4A (human (endogenous in HEK293T)), P42771; assay: co-IP; conditions: remark: other sources report otherwise
T1 chain: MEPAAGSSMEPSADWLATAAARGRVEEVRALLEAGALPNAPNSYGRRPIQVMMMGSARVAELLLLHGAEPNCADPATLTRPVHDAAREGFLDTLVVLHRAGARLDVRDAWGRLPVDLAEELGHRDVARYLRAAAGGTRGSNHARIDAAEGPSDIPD

stoichiometry N [1]: 2
Molecule: recombinant p16^INK4A (wild type) (from UniProt P42771 1-156) (natural protein)

B1: FLAG-p16^INK4A (wild type) (natural protein, human, UniProt P42771 9-156, looked up)
chain: MEPSADWLATAAARGRVEEVRALLEAGALPNAPNSYGRRPIQVMMMGSARVAELLLLHGAEPNCADPATLTRPVHDAAREGFLDTLVVLHRAGARLDVRDAWGRLPVDLAEELGHRDVARYLRAAAGGTRGSNHARIDAAEGPSDIPD
stoichiometry N (co-IP): 2

stoichiometry N [2]: 2
B2: endogenous p16^INK4A, P42771 1-156 (natural protein)
chain: MEPAAGSSMEPSADWLATAAARGRVEEVRALLEAGALPNAPNSYGRRPIQVMMMGSARVAELLLLHGAEPNCADPATLTRPVHDAAREGFLDTLVVLHRAGARLDVRDAWGRLPVDLAEELGHRDVARYLRAAAGGTRGSNHARIDAAEGPSDIPD
